The text below walks through data of patent US20210115124A1 (Genentech, published 2021).

The chains are these.
T1: human VEGF (hVEGF) (human, UniProt P15692 181-395)
T1 construct: also called VEGF-A
T1 sequence: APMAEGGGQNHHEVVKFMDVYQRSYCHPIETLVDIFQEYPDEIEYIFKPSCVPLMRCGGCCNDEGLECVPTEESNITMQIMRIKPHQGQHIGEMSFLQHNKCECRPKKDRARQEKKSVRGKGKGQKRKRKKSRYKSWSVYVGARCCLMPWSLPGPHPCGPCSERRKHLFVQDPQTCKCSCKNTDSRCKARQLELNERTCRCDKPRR

B1: G6.31 LC-S77E (Fab, V domains shown)
VH: EVQLVESGGGLVQPGGSLRLSCAASGFTISDYWIHWVRQAPGKGLEWVAGITPAGGYTYYADSVKGRFTISADTSKNTAYLQMNSLRAEDTAVYYCARFVFFLPYAMDYWGQGTLVTVSS
VL: DIQMTQSPSSLSASVGDRVTITCRASQDVSTAVAWYQQKPGKAPKLLIYSASFLYSGVPSRFSGSGSGTDFTLTISELQPEDFATYYCQQGYGNPFTFGQGTKVEIK
notes: Fab
B2: G6.31 LC-A51E (Fab, V domains shown)
VH: B1 VH
VL: B1 VL with A51E, E77S
notes: Fab
B3: G6.31 HC-T68K (Fab, name in Kabat numbering, V domains shown)
VH: B1 VH with T69K
VL: B1 VL with E77S
notes: Fab
B4: G6.31 HC-Y58E (Fab, name in Kabat numbering, V domains shown)
VH: B1 VH with Y59E
VL: B1 VL with E77S
notes: Fab
B5: G6.31 LC-G93E (Fab, V domains shown)
VH: B1 VH
VL: B1 VL with E77S, G93E
notes: Fab
B6: G6.31 LC-Q27E (Fab, V domains shown)
VH: B1 VH
VL: B1 VL with Q27E, E77S
notes: Fab
B7: G6.31 LC-P40E (Fab, V domains shown)
VH: B1 VH
VL: B1 VL with P40E, E77S
notes: Fab
B8: G6.31 HC-Y56K (Fab, name in Kabat numbering, V domains shown)
VH: B1 VH with Y57K
VL: B1 VL with E77S
notes: Fab
B9: G6.31 LC-S50R (Fab, V domains shown)
VH: B1 VH
VL: B1 VL with S50R, E77S
notes: Fab
B10: G6.31 LC-Y55E (Fab, V domains shown)
VH: B1 VH
VL: B1 VL with Y55E, E77S
notes: Fab
B11: G6.31 HC-T77K (Fab, name in Kabat numbering, V domains shown)
VH: B1 VH with T78K
VL: B1 VL with E77S
notes: Fab
B12: G6.31 LC-T72R (Fab, V domains shown)
VH: B1 VH
VL: B1 VL with T72R, E77S
notes: Fab
B13: G6.31 LC-Y92E (Fab, V domains shown)
VH: B1 VH
VL: B1 VL with E77S, Y92E
notes: Fab
B14: G6.31 LC-P59E (Fab, V domains shown)
VH: B1 VH
VL: B1 VL with P59E, E77S
notes: Fab
B15: G6.31 LC-T31R (Fab, V domains shown)
VH: B1 VH
VL: B1 VL with T31R, E77S
notes: Fab
B16: G6.31 HC-T73E (Fab, name in Kabat numbering, V domains shown)
VH: B1 VH with T74E
VL: B1 VL with E77S
notes: Fab
B17: G6.31 HC-T77E (Fab, name in Kabat numbering, V domains shown)
VH: B1 VH with T78E
VL: B1 VL with E77S
notes: Fab
B18: G6.31 LC-G57E (Fab, V domains shown)
VH: B1 VH
VL: B1 VL with G57E, E77S
notes: Fab
B19: G6.31 HC-A60M (Fab, name in Kabat numbering, V domains shown)
VH: B1 VH with A61M
VL: B1 VL with E77S
notes: Fab
B20: G6.31 HC-I51H (Fab, name in Kabat numbering, V domains shown)
VH: B1 VH with I51H
VL: B1 VL with E77S
notes: Fab

Changes are numbered by the printed parent chain.
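Throughout, for Fold change (relative to G6.31): fab variants injected over hVEGF immobilized on a CM5 chip (Biacore T200), threefold dilution series from 0.02 to 50 nM, kinetics fitted with a 1:1 Langmuir model.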

The first assay deals with T1, human VEGF (hVEGF). Nature of the assay: SPR single-cycle.
Text: To determine the binding affinity of selected Fab variants, SPR measurement with a BIACORE® T200 instrument was used. Briefly, series S sensor chip CM5 was activated with 1-ethyl-3-(3-dimethylaminopropyl) carbodiimide (EDC) and N-hydroxysuccinimide (NHS) reagents according to the supplier's instructions, and human VEGF (hVEGF) was coupled to achieve 50-80 response units (RU), then following by blocking un-reacted groups with 1M ethanolamine.
Three-fold serial dilutions of Fab in HBS-P buffer (0.01 M HEPES pH 7.4, 0.15 M NaCl, 0.005% surfactant P20) from low (0.02 nM) to high (50 nM) were injected (flow rate: 30 μl/min). The binding responses on hVEGF were corrected by subtracting of RU from a blank flow cell. The sensorgram was recorded and subject to reference and buffer subtraction before evaluating by BIACORE® T200 Evaluation Software (version 2.0). Association rates (kₒₙ) and dissociation rates (koff) were calculated using a simple one-to-one Langmuir binding model. The equilibrium dissociation constant (Kd) was calculated as the ratio koff/kₒₙ.
For the molecule B1, the “Fold change (relative to G6.31)” value was found to be 3 fold, the Kd came to 0.562 nM, the koff amounted to 0.000399 s⁻¹ and the kon worked out at 711000 M⁻¹ s⁻¹.
The corresponding values for B2 are 0.6 fold, 2.68 nM, 0.000462 s⁻¹ and 172000 M⁻¹ s⁻¹.
As to B3, the “Fold change (relative to G6.31)” value was found to be 1.3 fold, the Kd is 1.29 nM, the koff stood at 0.000513 s⁻¹ and the kon turned out to be 397000 M⁻¹ s⁻¹.
The corresponding values for B4 are 2.7 fold, 0.62 nM, 0.000508 s⁻¹ and 820000 M⁻¹ s⁻¹.
Take B5: the “Fold change (relative to G6.31)” value amounted to 0.3 fold, the Kd is 5.98 nM, the koff was found to be 0.00149 s⁻¹ and the kon worked out at 248000 M⁻¹ s⁻¹.
On the same counts, the results for B6 are 0.9 fold, 1.96 nM, 0.00045 s⁻¹ and 230000 M⁻¹ s⁻¹.
Turning to B7, the “Fold change (relative to G6.31)” value worked out at 0.1 fold, the Kd is 17.9 nM, the koff came to 0.000541 s⁻¹ and the kon stood at 30300 M⁻¹ s⁻¹.
On the same counts, the results for B8 are 1.8 fold, 0.965 nM, 0.000699 s⁻¹ and 724000 M⁻¹ s⁻¹.
The corresponding values for B9 are 0.9 fold, 1.89 nM, 0.000464 s⁻¹ and 245000 M⁻¹ s⁻¹.
On the same counts, the results for B10 are 0.1 fold, 11.7 nM, 0.000531 s⁻¹ and 45300 M⁻¹ s⁻¹.
As to B11, the “Fold change (relative to G6.31)” value is 7.7 fold, the Kd came out at 0.222 nM, the koff is 0.00045 s⁻¹ and the kon was determined as 2.03e+06 M⁻¹ s⁻¹.
Turning to B12, the “Fold change (relative to G6.31)” value is 1.1 fold, binding was characterised by a dissociation constant (Kd) of 1.53 nM, the koff is 0.000446 s⁻¹ and the kon turned out to be 292000 M⁻¹ s⁻¹.
In the case of B13, the “Fold change (relative to G6.31)” value was 0.8 fold, binding was put at a Kd of 2.07 nM, the koff amounted to 0.00103 s⁻¹ and the kon is 497000 M⁻¹ s⁻¹.
Regarding B14, the “Fold change (relative to G6.31)” value was 1.1 fold, the Kd came to 1.56 nM, the koff worked out at 0.000444 s⁻¹ and the kon came out at 284000 M⁻¹ s⁻¹.
For the molecule B15, the “Fold change (relative to G6.31)” value is 0.9 fold, binding was put at a Kd of 1.8 nM, the koff is 0.000489 s⁻¹ and the kon was 271000 M⁻¹ s⁻¹.
Take B16: the “Fold change (relative to G6.31)” value was found to be 2.2 fold, binding was put at a Kd of 0.788 nM, the koff was found to be 0.000434 s⁻¹ and the kon is 550000 M⁻¹ s⁻¹.
As for B17, the “Fold change (relative to G6.31)” value turned out to be 0.9 fold, the Kd stood at 1.93 nM, the koff amounted to 0.000477 s⁻¹ and the kon came to 248000 M⁻¹ s⁻¹.
For B18, the “Fold change (relative to G6.31)” value came to 1.7 fold, the Kd came to 0.974 nM, the koff is 0.000418 s⁻¹ and the kon stood at 429000 M⁻¹ s⁻¹.

A further assay has as its target T1, human VEGF (hVEGF). Nature of the assay: SPR single-cycle. This is another data set of the same source.
On to B19, for which the “Fold difference (relative to G6.31)” value was 0.8 fold, the Kd stood at 1.89 nM, the koff stood at 0.000729 s⁻¹ and the kon amounted to 386000 M⁻¹ s⁻¹.
The corresponding values for B20 are 2.5 fold, 0.62 nM, 0.00152 s⁻¹ and 2.48e+06 M⁻¹ s⁻¹.
